{"source": "patent US20050239134", "molecular_target": "TGF-beta-1 (TGF-β1 homodimer) (Homo sapiens?) (UniProt P01137)", "sequence (P01137 279-390)": "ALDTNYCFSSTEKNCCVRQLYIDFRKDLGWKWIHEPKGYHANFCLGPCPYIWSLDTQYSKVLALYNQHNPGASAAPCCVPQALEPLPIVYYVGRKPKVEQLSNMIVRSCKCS", "assay": "EMSA", "conditions": "PS at dA and dC (5' of A and C; from dATP(αS)/dCTP(αS)); apparent; naive library control; room temp 30 min", "data": [{"sequence": "CAGTCCGGATGCTCTAGAGTGACNNNNNNNNNNNNNNNNNNNNNNNNNNNNNNCGAATCTCGTGAAGCCGAGCG [initial 74-mer N30 thiophosphate ssDNA library]", "values": [{"measurement": "Kd", "value": 11, "unit": "µM"}]}]}
